Test results as given in doi:10.1101/049148.

Tests used:
[1] = molecular target: Heh1-VN (budding yeast (endogenously tagged)) (UniProt Q03707); assay: split reporter
[2] = molecular target: Heh2-VN (budding yeast (endogenously tagged)) (UniProt Q03281); assay: split reporter
Chain of UniProt Q03281 (Q03281 whole entry): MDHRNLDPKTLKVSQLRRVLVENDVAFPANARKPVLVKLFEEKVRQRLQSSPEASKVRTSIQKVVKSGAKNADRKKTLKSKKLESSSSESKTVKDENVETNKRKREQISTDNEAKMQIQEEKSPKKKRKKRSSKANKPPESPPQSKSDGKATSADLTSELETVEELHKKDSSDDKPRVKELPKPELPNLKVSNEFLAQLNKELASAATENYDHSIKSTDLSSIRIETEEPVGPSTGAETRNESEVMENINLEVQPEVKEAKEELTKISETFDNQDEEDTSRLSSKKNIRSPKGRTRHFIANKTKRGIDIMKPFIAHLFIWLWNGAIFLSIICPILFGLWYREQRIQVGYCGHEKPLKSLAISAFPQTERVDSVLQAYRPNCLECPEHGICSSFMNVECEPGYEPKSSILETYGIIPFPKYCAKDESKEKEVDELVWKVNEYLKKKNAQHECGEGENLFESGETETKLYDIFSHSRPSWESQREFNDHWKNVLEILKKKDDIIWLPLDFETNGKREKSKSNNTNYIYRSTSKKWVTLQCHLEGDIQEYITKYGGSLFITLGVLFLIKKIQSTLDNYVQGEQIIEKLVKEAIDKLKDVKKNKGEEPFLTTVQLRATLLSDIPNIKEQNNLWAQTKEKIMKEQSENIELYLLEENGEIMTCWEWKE

Chain of UniProt Q03707 (Q03707 whole entry): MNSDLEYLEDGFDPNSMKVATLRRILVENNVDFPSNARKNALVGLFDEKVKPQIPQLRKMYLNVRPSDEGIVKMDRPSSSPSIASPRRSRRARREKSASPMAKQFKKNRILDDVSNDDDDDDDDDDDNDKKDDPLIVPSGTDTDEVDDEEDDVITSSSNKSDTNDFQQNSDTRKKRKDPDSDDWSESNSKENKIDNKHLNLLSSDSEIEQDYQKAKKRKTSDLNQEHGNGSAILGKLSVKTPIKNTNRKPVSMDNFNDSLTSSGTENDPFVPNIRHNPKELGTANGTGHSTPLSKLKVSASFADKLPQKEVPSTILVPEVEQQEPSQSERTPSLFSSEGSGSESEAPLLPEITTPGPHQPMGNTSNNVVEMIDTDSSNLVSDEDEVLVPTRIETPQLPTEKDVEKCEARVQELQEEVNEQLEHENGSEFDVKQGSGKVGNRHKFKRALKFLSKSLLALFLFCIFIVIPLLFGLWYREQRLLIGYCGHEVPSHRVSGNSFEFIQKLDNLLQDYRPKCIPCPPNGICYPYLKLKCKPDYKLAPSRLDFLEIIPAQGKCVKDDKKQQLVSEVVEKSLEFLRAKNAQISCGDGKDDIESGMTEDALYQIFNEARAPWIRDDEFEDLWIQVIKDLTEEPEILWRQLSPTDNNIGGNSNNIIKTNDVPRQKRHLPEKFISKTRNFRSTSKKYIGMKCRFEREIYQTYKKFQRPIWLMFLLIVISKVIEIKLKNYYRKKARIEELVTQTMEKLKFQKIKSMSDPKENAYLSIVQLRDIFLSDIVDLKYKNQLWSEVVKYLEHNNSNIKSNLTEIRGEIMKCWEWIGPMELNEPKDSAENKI

- percent of cells with a BiFC focus [1]: 28%
- percent of cells with a BiFC focus [2]: 3%
Substance: Chm7-VC (natural protein)
